Assay results: publication PMC3664699
Values joined by “and” are separate entries in the source; they are usually repeats but may differ in a detail not shown here. Equal values may be shown once. Read-outs that look alike come from different tables or passages of the source. Each block holds one substance with its values, some of them ahead of it.

How the values were obtained:
GluA2L = test: AUC
GluA2S-FAM = test: AUC
[1] = target: GluA3 (AMPA receptor amino-terminal domain); test: AUC
[2] = target: EndoH-digested, FAM-labeled GluA2S; test: AUC
[3] = target: EndoH-digested, FAM-labeled GluA2S; test: AUC; remark: listed apart in the source
[4] = target: EndoH-digested, FAM-labeled GluA2S; test: AUC; remark: listed apart in the source
GluA2 ATD, GnTI− = test: AUC
EndoH-digested GluA2S [5] = test: AUC
EndoH-digested GluA2S [6] = test: AUC; remark: listed apart in the source
EndoH-digested GluA2S [7] = test: AUC; remark: listed apart in the source
EndoH-digested GluA2S [8] = test: AUC; remark: listed apart in the source
EndoH-digested GluA2S [9] = test: AUC; remark: listed apart in the source
[10] = target: EndoH-DyLight (GluA2 ATD, EndoH-digested, DyLight-labeled); test: fluorescence polarisation
[11] = target: GluA2S, GluA2 ATD with complex glycosylation (293T); test: AUC
[12] = target: GluA2S, GluA2 ATD with complex glycosylation (293T); test: AUC; remark: listed apart in the source

Sequence of EndoH-digested, FAM-labeled GluA2S (P19491 22-883): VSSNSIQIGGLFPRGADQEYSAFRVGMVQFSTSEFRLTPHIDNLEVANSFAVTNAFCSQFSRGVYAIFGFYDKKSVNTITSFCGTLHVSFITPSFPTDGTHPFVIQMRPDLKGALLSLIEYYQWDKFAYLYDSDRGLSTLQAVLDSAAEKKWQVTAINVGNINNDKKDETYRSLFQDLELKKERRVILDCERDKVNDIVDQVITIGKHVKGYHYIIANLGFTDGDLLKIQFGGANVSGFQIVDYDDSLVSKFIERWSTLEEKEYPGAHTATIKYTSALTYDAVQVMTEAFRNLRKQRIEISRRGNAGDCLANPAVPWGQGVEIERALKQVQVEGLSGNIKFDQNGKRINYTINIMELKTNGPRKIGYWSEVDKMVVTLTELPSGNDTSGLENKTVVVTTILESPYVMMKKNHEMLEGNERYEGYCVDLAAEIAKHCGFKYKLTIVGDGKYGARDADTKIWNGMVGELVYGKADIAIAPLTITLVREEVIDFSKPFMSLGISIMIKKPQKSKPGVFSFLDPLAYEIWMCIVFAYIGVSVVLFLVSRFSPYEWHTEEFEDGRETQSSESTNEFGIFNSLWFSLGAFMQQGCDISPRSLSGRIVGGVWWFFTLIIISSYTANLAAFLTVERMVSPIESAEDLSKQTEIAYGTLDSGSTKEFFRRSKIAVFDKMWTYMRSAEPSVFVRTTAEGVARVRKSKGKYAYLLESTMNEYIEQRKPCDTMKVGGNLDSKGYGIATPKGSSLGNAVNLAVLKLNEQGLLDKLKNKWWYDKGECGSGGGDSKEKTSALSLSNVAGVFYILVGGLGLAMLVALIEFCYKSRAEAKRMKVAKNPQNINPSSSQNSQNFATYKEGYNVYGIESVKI
Sequence of EndoH-DyLight (GluA2 ATD, EndoH-digested, DyLight-labeled) (P19491 22-883): as above
Sequence of EndoH-digested GluA2S (P19491 22-883): as above
Sequence of GluA2S, GluA2 ATD with complex glycosylation (293T) (P19491 22-883, one chain of several): as the sequence (P19491 22-883) above
Sequence of GluA3 (AMPA receptor amino-terminal domain) (P19492 23-888): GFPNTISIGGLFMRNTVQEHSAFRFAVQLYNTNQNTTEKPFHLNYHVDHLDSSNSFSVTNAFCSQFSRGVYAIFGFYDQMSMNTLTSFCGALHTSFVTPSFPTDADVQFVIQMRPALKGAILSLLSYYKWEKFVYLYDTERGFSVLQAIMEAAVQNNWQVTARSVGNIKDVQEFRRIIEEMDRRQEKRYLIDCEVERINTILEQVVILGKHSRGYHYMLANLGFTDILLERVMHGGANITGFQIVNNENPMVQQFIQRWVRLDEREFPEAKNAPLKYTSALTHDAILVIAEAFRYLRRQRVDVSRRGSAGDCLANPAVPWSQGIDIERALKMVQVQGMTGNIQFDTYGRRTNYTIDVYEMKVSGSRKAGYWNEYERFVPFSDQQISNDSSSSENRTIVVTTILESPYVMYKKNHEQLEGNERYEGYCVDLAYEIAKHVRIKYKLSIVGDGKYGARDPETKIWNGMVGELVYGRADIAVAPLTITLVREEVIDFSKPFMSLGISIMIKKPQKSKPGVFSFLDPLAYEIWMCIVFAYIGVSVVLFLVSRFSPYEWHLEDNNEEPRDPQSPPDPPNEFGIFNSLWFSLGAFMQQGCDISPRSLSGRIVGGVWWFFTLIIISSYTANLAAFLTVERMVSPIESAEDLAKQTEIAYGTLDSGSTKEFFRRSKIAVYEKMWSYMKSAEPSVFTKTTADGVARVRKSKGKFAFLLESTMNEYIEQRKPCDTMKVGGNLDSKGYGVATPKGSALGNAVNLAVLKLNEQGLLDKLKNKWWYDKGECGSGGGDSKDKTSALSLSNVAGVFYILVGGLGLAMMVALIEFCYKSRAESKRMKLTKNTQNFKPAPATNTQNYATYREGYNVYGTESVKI
Sequence of GluA2S-FAM (P19491 22-883): as the sequence (P19491 22-883) above
Sequence of GluA2L (P19491 22-883): as above
Sequence of GluA2 ATD, GnTI− (P19491 22-883): as above

- Kd (GluA2L): 5.5 nM
Substance: GluA2L (domain or fragment)

- Kd (GluA2S-FAM): 14.9 nM
Substance: GluA2S-FAM (domain or fragment)

- Kd [1]: 5600 nM
- stoichiometry N [1]: 2
Substance: GluA3 (AMPA receptor amino-terminal domain) (domain or fragment)

- Kd [2]: 2.5 nM
- Kd [3]: 13 nM
- Kd [4]: 10 nM
Substance: EndoH-digested, FAM-labeled GluA2S (domain or fragment)

- Kd (GluA2 ATD, GnTI−): 11 nM
Substance: GluA2 ATD, GnTI− (domain or fragment)

- Kd (EndoH-digested GluA2S [5]): 17 nM
- Kd (EndoH-digested GluA2S [6]): 160 nM and 284 nM
- stoichiometry N (EndoH-digested GluA2S [6]): 2
- Kd (EndoH-digested GluA2S [7]): 30 nM
- Kd (EndoH-digested GluA2S [8]): 12 nM and 8.3 nM and 10 nM
- Kd (EndoH-digested GluA2S [9]): 12 nM
Substance: EndoH-digested GluA2S (domain or fragment)

- Kd [10]: 10.8 nM and 11.3 nM and 8.43 nM
Substance: EndoH-DyLight (GluA2 ATD, EndoH-digested, DyLight-labeled) (domain or fragment)

- Kd [11]: 6 nM
- stoichiometry N [11]: 2
- Kd [12]: 8.3 nM
Substance: GluA2S, GluA2 ATD with complex glycosylation (293T) (domain or fragment)
